# Molecular target: T1, CD3 antigen of the T-cell receptor-CD3 complex on human T cells (human, UniProt P07766 23-207)
# T1 construct: whole, on cells; also called OKT3 antigen
# Assay: antigen binding assay on CD3 positive cells, COS cell supernatant (cell line not restated)
# Procedure: The procedure was as follows:
# HUT 78 cells (human T cell line, CD3 positive) were maintained in culture. Monolayers of HUT 78 cells were prepared onto 96 well ELISA plates using poly-L-lysine and glutaraldehyde. Samples were added to the monolayers for 1 hour at room temperature. The plates were washed gently using PBS. F(ab')_2 goat anti-human IgG Fc (HRPO conjugated) or F(ab')_2 goat anti-mouse IgG Fc (HRPO conjugated) was added as appropriate for humanised or mouse samples. Substrate was added to reveal the reaction. The negative control for the cell-based assay was chimer B72.3. […] Binding was measured by the following procedure: HPB-ALL cells were harvested from tissue culture. Cells were incubated at 4° C. for 1 hour with various dilutions of test antibody, positive control antibody, or negative control antibody. The cells were washed once and incubated at 4° C. for 1 hour with an FITC-labelled goat anti-human IgG (Fc– specific, mouse absorbed). The cells were washed twice and analysed by cytofluorography. […] Cells incubated with mock-transfected COS cell supernatant, followed by the FITC-labelled goat anti-human IgG, provided the negative control. […] The samples were incubated for 1 hour at 4° C., washed twice and analysed by cytofluorography.
binder,measurement,value
"fully CDR-grafted antibody kgL221A with gH341 (kgL221A/kgH341) (antibody, V domains shown, Expression was very low; also called kgH221A/gH341; kgH221A/kgH341) VH: QVQLVESGGGVVQPGRSLRLSCSSSGYTFTRYTMHWVRQAPGKGLEWVAYINPSRGYTNYNQKFKDRFTISRDNSKNTLFLQMDSLRPEDTGVYFCARYYDDHYCLDYWGQGTTLTVSS VL: QIVMTQSPSSLSASVGDRVTITCSASSSVSYMNWYQQTPGKAPKRWIYDTSKLASGVPSRFSGSGSGTDYTFTISSLQPEDIATYYCQQWSSNPFTFGQGTKLQIT",binding result,no binding

# — US6750325 (CELLTECH R AND D, dated 2004)
